The record followed here is the supplement of paper PMC9112550, “Optimization of the antimicrobial peptide Bac7 by deep mutational scanning” (BMC Biology, 2022).
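Note: peptides expressed intracellularly from a pBAD plasmid library in pooled LB shake-flask culture, induced with 0.3% L-arabinose, DNA abundance read by NGS, three biological replicates, DESeq2 with apeglm shrinkage.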

The series concerns Escherichia coli TOP10. Description: shrunken log2 fold change of peptide-encoding DNA abundance (4.5 h post-induction vs induction); higher = less antimicrobial activity (less host growth inhibition). The settings on record: time post-induction: 4.5 h; library: site-saturation at positions 5, 18, 19, 20.
As to RRIRWRPPRLPRPRPRPKCQPRP, the “shrunken log2 fold change” value worked out at 0.136.
Then RRIRARPPRLPRPRPRPSTFPRP, with 0.435; and RRIRWRPPRLPRPRPRPWESPRP, with -0.0449.
Then RRIRFRPPRLPRPRPRPGRIPRP, with 0.0413; and RRIRSRPPRLPRPRPRPVCSPRP, with 0.0822; and RRIRSRPPRLPRPRPRPKNYPRP, with -0.547.
As for RRIRDRPPRLPRPRPRPNGDPRP, the figure is -0.00931; as for RRIRPRPPRLPRPRPRPSMHPRP, 0.828; as for RRIRDRPPRLPRPRPRPNEHPRP, -0.0707.
With RRIRKRPPRLPRPRPRPWLKPRP, the “shrunken log2 fold change” value was 0.0705.
Then RRIRPRPPRLPRPRPRPNMQPRP, with -0.313.
As to RRIRKRPPRLPRPRPRPFHSPRP, the “shrunken log2 fold change” value was 0.00367.
As for RRIRERPPRLPRPRPRPEDYPRP, the figure is 0.00235; as for RRIRERPPRLPRPRPRPEMNPRP, 0.0387; as for RRIRGRPPRLPRPRPRPMRQPRP, 0.453.
Then RRIRIRPPRLPRPRPRPGCCPRP, with -0.04; and RRIRKRPPRLPRPRPRPQYHPRP, with -0.432.
For the sequence RRIRIRPPRLPRPRPRPVANPRP, the “shrunken log2 fold change” value was -0.109.
Then RRIRRRPPRLPRPRPRPKDQPRP, with 0.26.
In the case of RRIRYRPPRLPRPRPRPHYCPRP, the “shrunken log2 fold change” value was -0.403.
As for RRIRPRPPRLPRPRPRPGDDPRP, the figure is -0.292; as for RRIRERPPRLPRPRPRPWMIPRP, -0.616.
As for RRIRLRPPRLPRPRPRPCKPPRP, the figure is -0.1; as for RRIRYRPPRLPRPRPRPIGFPRP, 0.0062.
As for RRIRIRPPRLPRPRPRPHKHPRP, the figure is -0.881; as for RRIRQRPPRLPRPRPRPASWPRP, 0.00959; as for RRIRNRPPRLPRPRPRPRGFPRP, 0.443.
Take RRIRFRPPRLPRPRPRPGARPRP: the “shrunken log2 fold change” value turned out to be 0.355.
As for RRIRNRPPRLPRPRPRPMNWPRP, the figure is 0.127.
As for RRIRDRPPRLPRPRPRPITPPRP, the figure is -0.117.
As for RRIRSRPPRLPRPRPRPFWVPRP, the figure is 0.106; as for RRIRWRPPRLPRPRPRPWRWPRP, 0.0969; as for RRIRGRPPRLPRPRPRPCWMPRP, 0.301.
Turning to RRIRWRPPRLPRPRPRPTDPPRP, the “shrunken log2 fold change” value turned out to be 0.374.
Then RRIRQRPPRLPRPRPRPEQFPRP, with 0.0588; and RRIRHRPPRLPRPRPRPVGPPRP, with 0.195.
On to RRIRLRPPRLPRPRPRPWSQPRP, for which the “shrunken log2 fold change” value was -0.145.
RRIRDRPPRLPRPRPRPTANPRP: the “shrunken log2 fold change” value worked out at 0.877.
As for RRIRQRPPRLPRPRPRPYTYPRP, the figure is -0.157; as for RRIRRRPPRLPRPRPRPCCDPRP, 0.583.
Then RRIRWRPPRLPRPRPRPQDWPRP, with 0.36.
As for RRIRARPPRLPRPRPRPGMRPRP, the “shrunken log2 fold change” value worked out at 0.545.
Then RRIRFRPPRLPRPRPRPANWPRP, with 0.166.
As for RRIRSRPPRLPRPRPRPRFKPRP, the figure is 0.0925; as for RRIRFRPPRLPRPRPRPYAVPRP, -0.419; as for RRIRQRPPRLPRPRPRPWFHPRP, 0.00902.
On to RRIRSRPPRLPRPRPRPPHFPRP, for which the “shrunken log2 fold change” value was determined as 0.503.
As for RRIRCRPPRLPRPRPRPDQTPRP, the figure is -0.00778; as for RRIRMRPPRLPRPRPRPMWNPRP, 0.0246.
Then RRIRWRPPRLPRPRPRPNPCPRP, with -0.0647; and RRIRWRPPRLPRPRPRPSSCPRP, with -0.0941; and RRIRFRPPRLPRPRPRPCCYPRP, with -0.251.
Take RRIRRRPPRLPRPRPRPEDWPRP: the “shrunken log2 fold change” value worked out at 0.791.
As for RRIRRRPPRLPRPRPRPCIWPRP, the figure is 0.0382.
Then RRIRTRPPRLPRPRPRPSCMPRP, with -0.0847; and RRIRARPPRLPRPRPRPMTNPRP, with 0.178.
Then RRIRFRPPRLPRPRPRPTECPRP, with -0.0986; and RRIRRRPPRLPRPRPRPHHVPRP, with 0.296.
Consider RRIRQRPPRLPRPRPRPMFLPRP, for which the “shrunken log2 fold change” value was -0.38.
As for RRIRYRPPRLPRPRPRPQFRPRP, the figure is -0.18; as for RRIRSRPPRLPRPRPRPGQRPRP, 0.0367; as for RRIRFRPPRLPRPRPRPTRSPRP, 0.189.
As for RRIRKRPPRLPRPRPRPRQVPRP, the figure is 0.029; as for RRIRVRPPRLPRPRPRPATTPRP, 0.0611.
On to RRIRCRPPRLPRPRPRPKGRPRP, for which the “shrunken log2 fold change” value was -0.00803.
Then RRIRSRPPRLPRPRPRPYEKPRP, with -1.08; and RRIRVRPPRLPRPRPRPQRTPRP, with -0.0863; and RRIRCRPPRLPRPRPRPCPDPRP, with -0.612.
As for RRIRCRPPRLPRPRPRPKCPPRP, the figure is 0.0246; as for RRIRWRPPRLPRPRPRPPGLPRP, 0.601; as for RRIRHRPPRLPRPRPRPTWIPRP, -0.206.
Consider RRIRPRPPRLPRPRPRPQTDPRP, for which the “shrunken log2 fold change” value is -0.0886.
As to RRIRTRPPRLPRPRPRPICSPRP, the “shrunken log2 fold change” value was -0.0969.
For the sequence RRIRRRPPRLPRPRPRPPVGPRP, the “shrunken log2 fold change” value is 0.366.
As for RRIRKRPPRLPRPRPRPYWWPRP, the figure is -0.454; as for RRIRRRPPRLPRPRPRPMEFPRP, 0.0274.
Regarding RRIRHRPPRLPRPRPRPWILPRP, the “shrunken log2 fold change” value was -0.223.
Then RRIRSRPPRLPRPRPRPFCNPRP, with -0.106; and RRIRDRPPRLPRPRPRPSVWPRP, with 0.404.
As for RRIRERPPRLPRPRPRPEADPRP, the figure is 0.0032.
Then RRIRARPPRLPRPRPRPKSHPRP, with -0.184; and RRIRLRPPRLPRPRPRPTLSPRP, with -0.0659; and RRIRWRPPRLPRPRPRPEMVPRP, with -0.222.
For RRIRWRPPRLPRPRPRPRVIPRP, the “shrunken log2 fold change” value was -0.233.
Then RRIRNRPPRLPRPRPRPGCYPRP, with -0.24.
Then RRIRPRPPRLPRPRPRPIDMPRP, with -0.0916.
As for RRIRARPPRLPRPRPRPYMNPRP, the figure is -0.337.
RRIRTRPPRLPRPRPRPHKYPRP: the “shrunken log2 fold change” value is -0.295.
In the case of RRIRNRPPRLPRPRPRPYIYPRP, the “shrunken log2 fold change” value is -0.514.
As for RRIRTRPPRLPRPRPRPRKSPRP, the figure is -0.0508; as for RRIRQRPPRLPRPRPRPAAIPRP, 0.111.
As for RRIRTRPPRLPRPRPRPATTPRP, the figure is -0.181.
Then RRIRARPPRLPRPRPRPCDRPRP, with -0.00133; and RRIRRRPPRLPRPRPRPKIKPRP, with -0.0183.
Turning to RRIRCRPPRLPRPRPRPRCVPRP, the “shrunken log2 fold change” value is -0.0609.
On to RRIRNRPPRLPRPRPRPKIDPRP, for which the “shrunken log2 fold change” value was -0.626.
As for RRIRYRPPRLPRPRPRPNKNPRP, the figure is -0.935; as for RRIRWRPPRLPRPRPRPGRRPRP, 0.106.
As for RRIRNRPPRLPRPRPRPGVLPRP, the figure is 0.222; as for RRIRQRPPRLPRPRPRPVYKPRP, -0.612.
Turning to RRIRGRPPRLPRPRPRPCMFPRP, the “shrunken log2 fold change” value turned out to be 0.797.
Then RRIRVRPPRLPRPRPRPSVSPRP, with -0.488; and RRIRHRPPRLPRPRPRPWVCPRP, with -0.044.
Then RRIRNRPPRLPRPRPRPTHTPRP, with -0.191.
Consider RRIRLRPPRLPRPRPRPNRDPRP, for which the “shrunken log2 fold change” value is -0.124.
On to RRIRNRPPRLPRPRPRPSIPPRP, for which the “shrunken log2 fold change” value was -0.134.
Then RRIRDRPPRLPRPRPRPIAAPRP, with 0.476; and RRIRQRPPRLPRPRPRPATHPRP, with -0.28; and RRIRVRPPRLPRPRPRPLHLPRP, with -0.133.
As to RRIRVRPPRLPRPRPRPKSSPRP, the “shrunken log2 fold change” value is -0.0704.
As for RRIRSRPPRLPRPRPRPRVSPRP, the figure is -0.0241.
Then RRIRCRPPRLPRPRPRPGCVPRP, with 0.248; and RRIRMRPPRLPRPRPRPMKRPRP, with 0.573; and RRIRPRPPRLPRPRPRPLLTPRP, with 0.252.
In the case of RRIRCRPPRLPRPRPRPGWEPRP, the “shrunken log2 fold change” value was found to be 0.253.
As for RRIRKRPPRLPRPRPRPNYLPRP, the figure is -0.0798; as for RRIRRRPPRLPRPRPRPDGRPRP, 0.0193.
Take RRIRKRPPRLPRPRPRPESMPRP: the “shrunken log2 fold change” value was 0.603.
As for RRIRGRPPRLPRPRPRPHSYPRP, the figure is 0.231; as for RRIRLRPPRLPRPRPRPYDDPRP, -0.167; as for RRIRMRPPRLPRPRPRPAKFPRP, 0.0548.
As for RRIRKRPPRLPRPRPRPLLSPRP, the figure is 0.523; as for RRIRPRPPRLPRPRPRPCELPRP, -0.17.
As for RRIRDRPPRLPRPRPRPHFYPRP, the figure is -0.321; as for RRIRHRPPRLPRPRPRPWHNPRP, -0.261.
